Molecular target: low-density lipoprotein receptor-related protein 1 (mouse (endogenous in bEnd3))
Test: proximity ligation

Chain of low-density lipoprotein receptor-related protein 1 (mouse (endogenous in bEnd3)) (Q91ZX7 20-4545): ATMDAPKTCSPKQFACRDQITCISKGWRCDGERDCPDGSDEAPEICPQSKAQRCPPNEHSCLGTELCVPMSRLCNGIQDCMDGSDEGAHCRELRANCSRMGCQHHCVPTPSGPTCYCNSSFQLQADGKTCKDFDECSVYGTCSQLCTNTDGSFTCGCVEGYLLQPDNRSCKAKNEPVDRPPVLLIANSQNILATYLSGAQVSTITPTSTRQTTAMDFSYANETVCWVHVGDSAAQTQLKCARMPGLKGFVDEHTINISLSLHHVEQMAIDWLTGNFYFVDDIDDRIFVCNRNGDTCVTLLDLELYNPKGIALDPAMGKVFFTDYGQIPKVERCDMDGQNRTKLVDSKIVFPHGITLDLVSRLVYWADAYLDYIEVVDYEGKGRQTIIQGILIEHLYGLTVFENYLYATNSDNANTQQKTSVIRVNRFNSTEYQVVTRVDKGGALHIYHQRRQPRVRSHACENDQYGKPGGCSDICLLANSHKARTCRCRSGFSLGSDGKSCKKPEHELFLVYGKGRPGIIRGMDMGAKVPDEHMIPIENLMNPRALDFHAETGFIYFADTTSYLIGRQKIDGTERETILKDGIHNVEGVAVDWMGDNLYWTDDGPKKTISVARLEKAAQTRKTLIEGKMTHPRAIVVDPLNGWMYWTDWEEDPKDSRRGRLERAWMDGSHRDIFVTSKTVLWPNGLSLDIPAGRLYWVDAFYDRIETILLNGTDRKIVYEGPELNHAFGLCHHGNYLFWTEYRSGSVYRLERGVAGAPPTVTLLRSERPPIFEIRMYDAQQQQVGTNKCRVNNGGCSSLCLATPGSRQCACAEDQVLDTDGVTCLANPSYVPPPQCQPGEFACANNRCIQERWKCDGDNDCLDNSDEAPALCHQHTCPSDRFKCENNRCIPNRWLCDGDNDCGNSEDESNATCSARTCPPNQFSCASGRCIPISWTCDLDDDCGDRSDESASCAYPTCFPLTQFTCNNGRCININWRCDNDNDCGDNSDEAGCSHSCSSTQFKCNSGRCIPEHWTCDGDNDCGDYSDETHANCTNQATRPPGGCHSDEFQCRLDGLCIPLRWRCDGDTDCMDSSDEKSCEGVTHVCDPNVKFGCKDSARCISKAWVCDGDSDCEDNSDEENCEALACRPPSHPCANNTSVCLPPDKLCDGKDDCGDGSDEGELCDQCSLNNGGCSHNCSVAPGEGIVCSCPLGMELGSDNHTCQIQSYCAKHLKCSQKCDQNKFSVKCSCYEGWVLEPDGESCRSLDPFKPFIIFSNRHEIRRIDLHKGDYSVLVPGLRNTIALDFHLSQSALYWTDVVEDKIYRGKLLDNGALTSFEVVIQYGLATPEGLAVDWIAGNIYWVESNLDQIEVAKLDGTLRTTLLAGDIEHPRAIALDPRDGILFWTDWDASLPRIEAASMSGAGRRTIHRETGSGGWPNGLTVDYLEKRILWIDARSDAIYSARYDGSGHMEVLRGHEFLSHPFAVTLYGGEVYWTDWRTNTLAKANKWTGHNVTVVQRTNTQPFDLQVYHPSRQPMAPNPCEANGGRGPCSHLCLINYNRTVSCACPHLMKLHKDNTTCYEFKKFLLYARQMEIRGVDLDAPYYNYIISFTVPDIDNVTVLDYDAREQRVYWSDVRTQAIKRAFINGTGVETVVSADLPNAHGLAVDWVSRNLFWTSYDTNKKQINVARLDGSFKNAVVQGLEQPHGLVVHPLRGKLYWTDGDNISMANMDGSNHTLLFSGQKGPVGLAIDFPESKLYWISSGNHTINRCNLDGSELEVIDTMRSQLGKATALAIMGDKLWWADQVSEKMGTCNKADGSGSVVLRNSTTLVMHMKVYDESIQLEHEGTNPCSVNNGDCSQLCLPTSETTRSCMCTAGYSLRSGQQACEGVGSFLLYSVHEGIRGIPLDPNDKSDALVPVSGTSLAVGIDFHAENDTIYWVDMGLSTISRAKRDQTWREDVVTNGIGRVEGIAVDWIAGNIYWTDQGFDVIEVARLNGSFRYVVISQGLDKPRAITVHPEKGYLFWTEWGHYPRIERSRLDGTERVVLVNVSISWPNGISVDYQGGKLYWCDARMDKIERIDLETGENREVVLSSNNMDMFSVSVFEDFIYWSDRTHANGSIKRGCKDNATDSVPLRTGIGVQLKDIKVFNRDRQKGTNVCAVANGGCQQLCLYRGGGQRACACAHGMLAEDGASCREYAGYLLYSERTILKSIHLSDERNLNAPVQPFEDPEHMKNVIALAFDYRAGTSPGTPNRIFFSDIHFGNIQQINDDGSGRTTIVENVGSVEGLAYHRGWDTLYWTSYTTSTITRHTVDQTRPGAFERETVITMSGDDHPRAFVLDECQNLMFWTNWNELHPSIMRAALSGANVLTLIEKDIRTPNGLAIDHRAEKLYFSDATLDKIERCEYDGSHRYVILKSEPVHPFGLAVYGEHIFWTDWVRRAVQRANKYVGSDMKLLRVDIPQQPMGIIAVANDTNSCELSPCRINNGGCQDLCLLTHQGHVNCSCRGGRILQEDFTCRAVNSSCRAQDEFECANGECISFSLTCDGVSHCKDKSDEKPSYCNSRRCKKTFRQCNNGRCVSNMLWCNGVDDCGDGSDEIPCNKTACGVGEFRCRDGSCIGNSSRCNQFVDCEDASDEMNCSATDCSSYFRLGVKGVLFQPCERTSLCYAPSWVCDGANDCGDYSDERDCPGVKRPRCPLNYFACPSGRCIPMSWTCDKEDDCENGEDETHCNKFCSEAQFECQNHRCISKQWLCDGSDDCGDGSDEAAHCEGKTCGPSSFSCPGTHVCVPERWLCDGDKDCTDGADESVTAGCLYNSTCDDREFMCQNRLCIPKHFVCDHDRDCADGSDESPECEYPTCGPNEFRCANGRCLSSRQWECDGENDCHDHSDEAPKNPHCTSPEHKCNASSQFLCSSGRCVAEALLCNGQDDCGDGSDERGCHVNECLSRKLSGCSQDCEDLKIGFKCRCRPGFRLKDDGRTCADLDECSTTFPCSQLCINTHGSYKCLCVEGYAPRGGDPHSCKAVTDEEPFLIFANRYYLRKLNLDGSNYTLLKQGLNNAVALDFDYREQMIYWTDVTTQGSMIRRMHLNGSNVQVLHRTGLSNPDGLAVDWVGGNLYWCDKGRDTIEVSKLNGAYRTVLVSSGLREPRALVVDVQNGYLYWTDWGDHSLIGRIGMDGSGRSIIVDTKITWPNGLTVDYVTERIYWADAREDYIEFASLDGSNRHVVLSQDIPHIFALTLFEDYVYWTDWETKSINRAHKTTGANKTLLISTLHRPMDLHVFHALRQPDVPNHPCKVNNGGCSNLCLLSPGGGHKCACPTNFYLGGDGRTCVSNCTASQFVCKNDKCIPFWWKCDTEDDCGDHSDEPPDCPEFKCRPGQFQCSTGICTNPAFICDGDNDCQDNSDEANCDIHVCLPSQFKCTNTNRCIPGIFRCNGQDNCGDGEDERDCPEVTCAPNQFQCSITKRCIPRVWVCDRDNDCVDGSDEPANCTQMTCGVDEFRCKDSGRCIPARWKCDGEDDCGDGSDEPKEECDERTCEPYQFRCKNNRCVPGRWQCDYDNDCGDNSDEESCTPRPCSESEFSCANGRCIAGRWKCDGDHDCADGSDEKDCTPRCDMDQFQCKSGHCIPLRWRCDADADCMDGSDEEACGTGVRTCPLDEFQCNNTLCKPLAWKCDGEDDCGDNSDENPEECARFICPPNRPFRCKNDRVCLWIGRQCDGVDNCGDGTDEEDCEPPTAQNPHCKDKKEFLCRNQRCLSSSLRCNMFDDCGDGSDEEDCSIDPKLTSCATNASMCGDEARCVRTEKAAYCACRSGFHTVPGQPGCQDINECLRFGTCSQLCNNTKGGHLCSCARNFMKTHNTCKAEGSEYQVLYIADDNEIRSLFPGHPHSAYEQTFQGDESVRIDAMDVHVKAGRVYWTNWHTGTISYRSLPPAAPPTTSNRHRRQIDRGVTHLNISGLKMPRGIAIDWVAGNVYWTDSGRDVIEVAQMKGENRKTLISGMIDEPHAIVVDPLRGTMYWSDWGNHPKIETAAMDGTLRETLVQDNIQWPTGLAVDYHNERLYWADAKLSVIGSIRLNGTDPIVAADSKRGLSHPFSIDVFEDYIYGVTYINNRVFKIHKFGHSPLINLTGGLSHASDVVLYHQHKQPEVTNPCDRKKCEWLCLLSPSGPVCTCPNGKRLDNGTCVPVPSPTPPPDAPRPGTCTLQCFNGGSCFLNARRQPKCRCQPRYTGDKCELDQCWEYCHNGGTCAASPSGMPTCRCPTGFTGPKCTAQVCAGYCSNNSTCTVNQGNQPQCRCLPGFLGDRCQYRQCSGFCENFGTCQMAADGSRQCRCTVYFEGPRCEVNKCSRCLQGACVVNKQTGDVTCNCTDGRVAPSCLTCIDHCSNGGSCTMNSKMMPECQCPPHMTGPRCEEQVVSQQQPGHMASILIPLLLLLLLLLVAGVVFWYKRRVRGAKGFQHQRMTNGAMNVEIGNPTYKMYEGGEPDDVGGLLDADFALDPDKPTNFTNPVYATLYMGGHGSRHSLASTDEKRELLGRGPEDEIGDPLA
Chain of syndapin-2 (Q9WVE8 whole entry): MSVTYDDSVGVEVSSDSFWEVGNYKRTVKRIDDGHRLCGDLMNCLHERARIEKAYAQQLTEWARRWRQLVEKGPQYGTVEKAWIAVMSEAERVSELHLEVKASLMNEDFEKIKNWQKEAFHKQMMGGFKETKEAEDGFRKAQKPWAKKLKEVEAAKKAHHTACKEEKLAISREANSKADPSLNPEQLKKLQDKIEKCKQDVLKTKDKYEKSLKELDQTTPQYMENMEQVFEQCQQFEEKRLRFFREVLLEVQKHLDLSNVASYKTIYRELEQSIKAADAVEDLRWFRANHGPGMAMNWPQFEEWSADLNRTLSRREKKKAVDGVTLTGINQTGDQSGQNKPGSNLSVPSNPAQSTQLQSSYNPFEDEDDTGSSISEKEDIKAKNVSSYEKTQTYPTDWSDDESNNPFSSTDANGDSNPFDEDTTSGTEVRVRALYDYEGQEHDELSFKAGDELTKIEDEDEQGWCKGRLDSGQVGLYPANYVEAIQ

| PLA dots per cell (dots per cell) | Molecule |
| --- | --- |
| 250 | syndapin-2 (from UniProt Q9WVE8 1-486) (natural protein) |
| 80 | apolipoprotein E (ligand) EGEPEVTDQLEWQSNQPWEQALNRFWDYLRWVQTLSDQVQEELQSSQVTQELTALMEDTMTEVKAYKKELEEQLGPVAEETRARLGKEVQAAQARLGADMEDLRNRLGQYRNEVHTMLGQSTEEIRARLSTHLRKMRKRLMRDAEDLQKRLAVYKAGAREGAERGVSAIRERLGPLVEQGRQRTANLGAGAAQPLRDRAQAFGDRIRGRLEEVGNQARDRLEEVREHMEEVRSKMEEQTQQIRLQAEIFQARLKGWFEPIVEDMHRQWANLMEKIQASVATNPIITPVAQENQ |

— article doi:10.1101/2020.07.12.199869
